Assay results from patent US20240327519A1 (Genentech, published 2024).

Columns and labels:
[1] = biological target: T1, LAG3 (lymphocyte activation gene-3), as parameterised in the receptor occupancy model (UniProt P18627 23-450, limits assumed); experiment: assay not stated; parameter of the mPBPK tumor receptor occupancy model; input parameter of the PK/receptor occupancy model; assay not stated
T1 construct: also called CD223
T1 sequence (looked up): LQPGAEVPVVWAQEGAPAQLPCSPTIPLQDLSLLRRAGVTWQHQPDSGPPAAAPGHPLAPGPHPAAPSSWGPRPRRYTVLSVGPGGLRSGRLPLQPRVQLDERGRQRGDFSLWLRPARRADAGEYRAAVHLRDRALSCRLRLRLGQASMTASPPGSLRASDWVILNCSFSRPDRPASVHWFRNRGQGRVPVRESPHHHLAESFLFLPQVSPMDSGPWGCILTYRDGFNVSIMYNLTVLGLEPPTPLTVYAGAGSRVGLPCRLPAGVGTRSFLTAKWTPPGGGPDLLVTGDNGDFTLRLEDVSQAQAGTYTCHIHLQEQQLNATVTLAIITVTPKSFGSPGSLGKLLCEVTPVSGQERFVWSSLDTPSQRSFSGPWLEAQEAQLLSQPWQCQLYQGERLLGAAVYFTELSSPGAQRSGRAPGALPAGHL

[2] = biological target: PD-1 (programmed cell death protein 1), as parameterised in the receptor occupancy model (UniProt Q15116 25-167, limits assumed); experiment: assay not stated; parameter of the mPBPK tumor receptor occupancy model
Sequence of PD-1 (programmed cell death protein 1), as parameterised in the receptor occupancy model (Q15116 25-167 limits assumed): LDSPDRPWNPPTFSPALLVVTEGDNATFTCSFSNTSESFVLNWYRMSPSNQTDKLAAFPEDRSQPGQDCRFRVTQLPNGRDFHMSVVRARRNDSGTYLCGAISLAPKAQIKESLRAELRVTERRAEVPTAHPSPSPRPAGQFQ

Kd [1]: 0.78 nM
B1: RO7247669 (PD1-LAG3), anti-PD-1/LAG3 bispecific antibody (bispecific antibody, human IgG1, kappa, L234A L235A)
heavy 1: not shown
light 1: EVQLLESGGGLVQPGGSLRLSCAASGFSFSSYTMSWVRQAPGKGLEWVATISGGGRDIYYPDSVKGRFTISRDNSKNTLYLQMNSLRAEDTAVYYCVLLTGRVYFALDSWGQGTLVTVSSASVAAPSVFIFPPSDEQLKSGTASVVCLLNNFYPREAKVQWKVDNALQSGNSQESVTEQDSKDSTYSLSSTLTLSKADYEKHKVYACEVTHQGLSSPVTKSFNRGEC
heavy 2: EVQLLESGGGLVQPGGSLRLSCAASGFIFDDYTMNWVRQAPGKGLEWVAVISWDGGGTYYTDSVKGRFTISRDDFKNTLYLQMNSLRAEDTAVYYCAKGLTDTTLYGSDYWGQGTLVTVSSASTKGPSVFPLAPSSKSTSGGTAALGCLVEDYFPEPVTVSWNSGALTSGVHTFPAVLQSSGLYSLSSVVTVPSSSLGTQTYICNVNHKPSNTKVDEKVEPKSCDKTHTCPPCPAPEAAGGPSVFLFPPKPKDTLMISRTPEVTCVVVDVSHEDPEVKFNWYVDGVEVHNAKTKPREEQYNSTYRVVSVLTVLHQDWLNGKEYKCKVSNKALGAPIEKTISKAKGQPREPQVCTLPPSRDELTKNQVSLSCAVKGFYPSDIAVEWESNGQPENNYKTTPPVLDSDGSFFLVSKLTVDKSRWQQGNVFSCSVMHEALHNHYTQKSLSLSPGK
light 2: not shown
notes: also called PD-1 BsAb; bsAb RO7247669
Kd [2]: 0.25 nM
